Key:
[1] = target: α5β1 integrin on murine bladder cancer MB49-Luc cells (mouse (endogenous in MB49-Luc)) (UniProt P11688)
[2] = target: α5β1 integrin on human bladder cancer 5637 cells (human (endogenous in 5637)) (UniProt P08648)
[3] = target: α5β1 integrin on murine bladder cancer MB49-Luc cells (mouse (endogenous in MB49-Luc)) (UniProt P11688); remark: listed apart in the source
[4] = target: Wild-type human integrin α5β1 (octyl β-D-glucopyranoside preparation) (human) (UniProt P08648); assay: ELISA; α5β1 (4 μg/ml) coated on PVC microtiter plates; Iso4-HRP or ARA-HRP 0–400 nM in 25 mM Tris-HCl pH 7.4, 150 mM sodium chloride, 1 mM magnesium chloride, 1 mM manganese chloride, 1% BSA, 2 h; no detergent; bound peroxidase by OPD, absorbance at 490 nm; effect of urine: Iso4-HRP 300 nM mixed with human urine (11.5–90%)
[5] = test system: MB49-Luc orthotopic bladder tumor; assay: In vivo PAI of orthotopic MB49-Luc bladder tumor; design: species or system mouse; conditions: co-administration of excess free peptide (296 µg) with GNRs@Chit-Iso4 (1.5 nmol Au); two mice per condition
Method: All procedures and studies involving mice were approved by the Institutional Animal Care and Use Committee of San Raffaele Scientific Institute and performed according to the prescribed guidelines (IACUC, approval number 942). Female albino C57BL/6 J mice (9 weeks old, weighing about 20 g, Charles River Laboratories, Italy) were anesthetized with ketamine (80 mg/kg) and xylazine (15 mg/kg) and kept in dorsal position. Using a 24-gauge catheter, the bladder of each mouse was emptied and instilled with or without MB49-Luc cells (10^5 cells/100 μl in DPBS). Thirty minutes later the catheter was removed, and mice were allowed to recover and returned to their cage. Tumor growth was monitored by measuring the tumor volume through US imaging (see below) and in vivo bioluminescent quantification after administration of luciferin (15 mg/kg, intra peritoneum) using the non-invasive In Vivo Imaging System (IVIS, PerkinElmer, USA). […]

5637 cells = assay: Cell adhesion to GNR-coated plates, 5637; format: cell-based, human; conditions: excess of free Iso4, plates coated with 250 µg/ml GNRs@Chit-Iso4
Method: (§1) The plates were washed and blocked with 2% BSA in DMEM or RPMI-1640 (200 μl/well, 1 h). MB49-Luc and 5637 cells were detached with DPBS-E, washed twice with DPBS, and suspended in DMEM or RPMI-1640 containing 0.1% BSA (binding buffer-3), and added to the coated-plates (1.5 ×10^5 cells/well, 100 μl). After 1–2 h of incubation at 37 °C, 5% CO2, the plates were washed with binding buffer-3. Adherent cells were fixed and stained with 0.5% crystal violet in 20% methanol. After washing with water, the dye was extracted from cells using a 10% acetic acid solution (140 μl/well) and the absorbance at 570 nm was measured using a microplate reader.

MB49-Luc cells = assay: Cell adhesion to GNR-coated plates, MB49-Luc; format: cell-based, murine; conditions: excess of free Iso4, plates coated with 250 µg/ml GNRs@Chit-Iso4
Method: as §1

Chain of UniProt P11688 (P11688 45-1053, chain 1 of 2): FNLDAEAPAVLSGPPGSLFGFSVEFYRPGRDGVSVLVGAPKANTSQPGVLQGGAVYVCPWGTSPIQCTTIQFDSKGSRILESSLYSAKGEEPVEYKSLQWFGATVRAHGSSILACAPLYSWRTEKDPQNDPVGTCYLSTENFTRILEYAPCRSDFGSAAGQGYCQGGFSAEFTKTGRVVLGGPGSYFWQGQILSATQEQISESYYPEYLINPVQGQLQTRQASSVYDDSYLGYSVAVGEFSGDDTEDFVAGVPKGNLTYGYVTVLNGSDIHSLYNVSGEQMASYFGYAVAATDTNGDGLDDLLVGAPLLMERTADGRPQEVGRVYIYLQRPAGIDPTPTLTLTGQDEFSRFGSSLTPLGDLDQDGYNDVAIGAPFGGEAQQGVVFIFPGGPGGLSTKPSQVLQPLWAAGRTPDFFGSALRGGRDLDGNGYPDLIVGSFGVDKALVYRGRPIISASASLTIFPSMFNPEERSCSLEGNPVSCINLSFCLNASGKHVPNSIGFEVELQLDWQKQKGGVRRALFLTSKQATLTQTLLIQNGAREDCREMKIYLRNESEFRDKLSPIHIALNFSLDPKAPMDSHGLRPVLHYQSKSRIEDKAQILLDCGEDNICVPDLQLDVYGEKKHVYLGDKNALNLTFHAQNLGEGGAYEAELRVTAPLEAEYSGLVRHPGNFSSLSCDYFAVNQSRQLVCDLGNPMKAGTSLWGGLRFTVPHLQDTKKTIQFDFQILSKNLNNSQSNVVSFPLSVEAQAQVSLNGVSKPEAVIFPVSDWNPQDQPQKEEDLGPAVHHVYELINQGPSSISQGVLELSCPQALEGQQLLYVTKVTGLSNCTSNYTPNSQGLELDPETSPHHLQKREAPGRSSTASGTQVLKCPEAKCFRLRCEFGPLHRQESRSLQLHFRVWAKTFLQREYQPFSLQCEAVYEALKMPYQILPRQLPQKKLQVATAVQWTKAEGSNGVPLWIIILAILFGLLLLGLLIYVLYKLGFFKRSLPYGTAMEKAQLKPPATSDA
Chain of UniProt P11688 (P09055 21-798, chain 2 of 2, further chain): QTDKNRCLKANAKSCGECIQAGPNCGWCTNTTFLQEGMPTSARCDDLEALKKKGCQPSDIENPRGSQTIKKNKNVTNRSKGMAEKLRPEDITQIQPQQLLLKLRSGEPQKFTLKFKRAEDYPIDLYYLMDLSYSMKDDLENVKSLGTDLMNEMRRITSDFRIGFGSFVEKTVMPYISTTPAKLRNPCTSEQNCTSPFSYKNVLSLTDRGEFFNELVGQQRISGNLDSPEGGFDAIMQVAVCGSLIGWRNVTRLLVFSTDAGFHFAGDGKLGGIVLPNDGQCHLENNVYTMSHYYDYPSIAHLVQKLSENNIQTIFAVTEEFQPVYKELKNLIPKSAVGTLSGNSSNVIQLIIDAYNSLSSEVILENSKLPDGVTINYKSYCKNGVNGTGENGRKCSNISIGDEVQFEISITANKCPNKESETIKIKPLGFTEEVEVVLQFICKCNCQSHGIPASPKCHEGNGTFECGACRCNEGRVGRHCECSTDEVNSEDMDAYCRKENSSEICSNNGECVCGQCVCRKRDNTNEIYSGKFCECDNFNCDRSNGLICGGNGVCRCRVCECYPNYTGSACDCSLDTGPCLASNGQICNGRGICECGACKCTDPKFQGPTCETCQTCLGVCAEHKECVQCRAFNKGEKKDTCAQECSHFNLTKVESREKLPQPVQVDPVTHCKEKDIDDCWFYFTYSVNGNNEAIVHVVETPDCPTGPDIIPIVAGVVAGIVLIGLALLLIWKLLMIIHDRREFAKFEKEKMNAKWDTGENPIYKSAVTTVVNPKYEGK
Chain of UniProt P08648 (P08648 42-1049, chain 1 of 2): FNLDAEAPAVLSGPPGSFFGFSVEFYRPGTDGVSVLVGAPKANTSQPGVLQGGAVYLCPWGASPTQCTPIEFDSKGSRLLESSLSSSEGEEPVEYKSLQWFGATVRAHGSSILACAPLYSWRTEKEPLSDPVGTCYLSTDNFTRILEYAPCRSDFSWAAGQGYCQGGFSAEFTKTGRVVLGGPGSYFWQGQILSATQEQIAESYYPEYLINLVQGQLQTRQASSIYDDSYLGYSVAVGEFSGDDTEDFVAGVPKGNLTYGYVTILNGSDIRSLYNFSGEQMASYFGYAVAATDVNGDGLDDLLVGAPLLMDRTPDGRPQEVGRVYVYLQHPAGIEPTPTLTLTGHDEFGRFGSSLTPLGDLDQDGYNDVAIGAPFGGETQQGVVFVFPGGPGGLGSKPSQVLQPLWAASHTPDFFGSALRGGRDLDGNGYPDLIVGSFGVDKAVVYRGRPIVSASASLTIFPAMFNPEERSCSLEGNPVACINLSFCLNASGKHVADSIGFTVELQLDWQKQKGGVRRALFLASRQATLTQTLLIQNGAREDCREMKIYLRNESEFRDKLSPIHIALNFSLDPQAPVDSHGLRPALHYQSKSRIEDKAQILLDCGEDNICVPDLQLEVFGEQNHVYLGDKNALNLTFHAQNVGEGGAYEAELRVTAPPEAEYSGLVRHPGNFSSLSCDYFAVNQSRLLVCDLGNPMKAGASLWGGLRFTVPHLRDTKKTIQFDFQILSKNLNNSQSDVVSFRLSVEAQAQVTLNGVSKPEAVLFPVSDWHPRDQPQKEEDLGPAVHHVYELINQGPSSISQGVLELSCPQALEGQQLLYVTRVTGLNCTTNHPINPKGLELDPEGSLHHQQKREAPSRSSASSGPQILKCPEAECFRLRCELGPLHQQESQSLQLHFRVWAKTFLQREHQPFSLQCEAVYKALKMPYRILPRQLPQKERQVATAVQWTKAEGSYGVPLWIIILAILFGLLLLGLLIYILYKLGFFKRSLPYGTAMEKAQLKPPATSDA
Chain of UniProt P08648 (P05556 21-798, chain 2 of 2, further chain): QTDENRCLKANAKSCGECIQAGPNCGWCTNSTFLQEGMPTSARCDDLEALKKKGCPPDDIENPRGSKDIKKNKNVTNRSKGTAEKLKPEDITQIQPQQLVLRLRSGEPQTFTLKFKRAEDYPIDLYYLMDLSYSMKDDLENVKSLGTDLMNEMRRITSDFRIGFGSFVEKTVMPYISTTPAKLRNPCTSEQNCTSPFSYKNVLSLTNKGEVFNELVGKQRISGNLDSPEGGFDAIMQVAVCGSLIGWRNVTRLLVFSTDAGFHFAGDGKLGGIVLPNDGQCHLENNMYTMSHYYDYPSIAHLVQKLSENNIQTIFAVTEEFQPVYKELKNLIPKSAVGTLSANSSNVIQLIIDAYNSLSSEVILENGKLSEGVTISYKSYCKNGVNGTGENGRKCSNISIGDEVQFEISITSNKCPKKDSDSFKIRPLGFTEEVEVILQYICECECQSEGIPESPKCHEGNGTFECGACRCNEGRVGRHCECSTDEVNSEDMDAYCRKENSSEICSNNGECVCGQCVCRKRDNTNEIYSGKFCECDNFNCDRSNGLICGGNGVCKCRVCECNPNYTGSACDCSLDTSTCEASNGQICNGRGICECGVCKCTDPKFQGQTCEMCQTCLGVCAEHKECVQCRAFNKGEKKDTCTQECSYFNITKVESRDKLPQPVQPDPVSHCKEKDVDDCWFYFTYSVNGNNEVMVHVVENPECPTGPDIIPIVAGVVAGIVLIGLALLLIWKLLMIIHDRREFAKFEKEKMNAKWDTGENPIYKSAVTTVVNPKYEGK

GNRs@Chit-Iso4 (chitosan-coated gold nanorods functionalized with Iso4 through a maleimide-PEG12-NHS linker) (peptide)
increase of MB49-Luc cell adhesion to GNRs@Chit-Iso4-coated plates in DMEM containing 25–75% human urine [1]: 20% | EC50 of adhesion of 5637 cells to plates coated with GNRs@Chit-Iso4 [2]: 1.3 µg/mL | EC50 of adhesion of MB49-Luc cells to plates coated with GNRs@Chit-Iso4 [3]: 0.73 µg/mL

Iso4-HRP (head-to-tail cyclized peptide c(CphgisoDGRG), Iso4, conjugated to maleimide-activated horseradish peroxidase)
recovery of binding in 90% human urine [4]: 55%

c(CphgisoDGRG) (head to tail) [Iso4]
effect of free peptide on tumor binding of GNR@Chit-Iso4 [5]: reduced by co-administration of an excess of free Iso4 peptide | inhibition of cell adhesion by free peptide (5637 cells): completely inhibited cell adhesion | inhibition of cell adhesion by free peptide (MB49-Luc cells): completely inhibited cell adhesion
